Results from article PMC12921663, “NanoBondy Reaction through NeissLock Anhydride Allows Covalent Immune Cell Decoration” (Bioconjugate Chemistry, 2026).

Tests used:
[1] = target: T1, endogenous human CD45 at the cell surface (Homo sapiens, UniProt P08575-4); test: flow cytometry on cells; nanobodies incubated with Expi293F, NK92 or YTS cells; detected with anti-VHH-Alexa Fluor 647; conditions: one partner purified
T1 construct: CD45, human, endogenous; also called CD45RO; source: endogenous, on YTS and NK92 cells and on primary human CD8+ T cells
T1 sequence (P08575 other isoform, or with tags, fused parts or gaps): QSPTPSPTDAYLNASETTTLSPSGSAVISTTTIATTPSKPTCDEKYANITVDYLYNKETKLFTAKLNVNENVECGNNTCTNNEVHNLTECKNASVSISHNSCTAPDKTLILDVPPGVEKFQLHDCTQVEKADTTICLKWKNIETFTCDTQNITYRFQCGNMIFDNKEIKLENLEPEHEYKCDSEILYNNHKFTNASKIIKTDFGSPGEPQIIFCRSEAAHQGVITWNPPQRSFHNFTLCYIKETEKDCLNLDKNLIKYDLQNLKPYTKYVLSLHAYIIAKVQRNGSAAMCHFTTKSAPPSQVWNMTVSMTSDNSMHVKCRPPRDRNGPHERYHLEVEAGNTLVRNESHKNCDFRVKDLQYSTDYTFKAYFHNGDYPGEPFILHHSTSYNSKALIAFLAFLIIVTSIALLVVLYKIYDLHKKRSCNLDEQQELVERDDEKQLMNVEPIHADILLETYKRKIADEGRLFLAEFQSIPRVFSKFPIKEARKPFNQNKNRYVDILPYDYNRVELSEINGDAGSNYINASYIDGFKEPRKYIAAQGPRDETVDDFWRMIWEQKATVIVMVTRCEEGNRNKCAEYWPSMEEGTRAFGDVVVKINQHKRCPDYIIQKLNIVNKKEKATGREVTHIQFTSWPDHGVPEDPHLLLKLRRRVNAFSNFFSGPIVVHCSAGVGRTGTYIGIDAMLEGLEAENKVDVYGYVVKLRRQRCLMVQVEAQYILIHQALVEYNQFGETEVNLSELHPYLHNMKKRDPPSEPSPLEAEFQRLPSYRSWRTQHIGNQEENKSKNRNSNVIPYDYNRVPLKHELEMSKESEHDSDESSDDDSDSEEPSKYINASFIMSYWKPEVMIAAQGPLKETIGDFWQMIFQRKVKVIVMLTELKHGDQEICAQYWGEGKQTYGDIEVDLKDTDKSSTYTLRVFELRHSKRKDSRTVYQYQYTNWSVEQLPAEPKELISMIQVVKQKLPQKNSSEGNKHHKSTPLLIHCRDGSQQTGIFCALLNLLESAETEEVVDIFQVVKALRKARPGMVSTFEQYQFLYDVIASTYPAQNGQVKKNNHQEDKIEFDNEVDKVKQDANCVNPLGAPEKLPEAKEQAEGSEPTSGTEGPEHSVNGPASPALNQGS

[2] = target: T2, CD45d1d2 (d1 and d2 domains of human CD45 linked to an AviTag) (Homo sapiens, biotin (site-specific, on the AviTag); N-linked glycosylation); test: ELISA; nanobodies coated on a plate, incubated with the indicated concentrations of biotinylated CD45d1d2; colorimetric detection (absorbance at 450 nm); conditions: both partners purified
T2 construct: CD45, human, extracellular domains d1 and d2; Construct limits may stand in the Supporting Information; also called biotinylated human CD45 domains 1 and 2; source: Expi293F cells, purified
T2 chain: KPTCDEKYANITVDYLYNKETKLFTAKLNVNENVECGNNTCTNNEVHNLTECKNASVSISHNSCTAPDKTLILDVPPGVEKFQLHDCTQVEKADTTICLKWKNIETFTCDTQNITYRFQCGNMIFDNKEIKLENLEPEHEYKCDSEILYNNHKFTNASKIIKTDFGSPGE

binding result [1]: binds | binding result [2]: binds
B1: anti-CD45 nanobody 2H5 (VHH)
VHH: QVQLQESGGGLVQTGGSLTLSCVASGGTFSSYAMGWFRQAPGKEREFVAAIGGSGDSTYYADSVKGRFTISRDNAKNSVYLQMNSLKPEDTAVYYCQADPTMFHKLYYGINPNEYDYWGQGTLVTVSS
notes: VHH 2H5 against the d1d2 region of human CD45, from llama immunization; the source of the nanobodies is a cited earlier work
